Literature values, collected in patent US3940480A, “Process for production of stabilized powdery secretin preparation by lyophilization” (priority 1972, dated 1976).

Settings: kept at -20°C

Substance: Secretin
- Hormone activity of secretin kept at low temperature (in words): gradually loses its hormone activity
